For 27 molecules, Kd results are on record in paper PMC10786891, “Massively parallel profiling of RNA-targeting CRISPR-Cas13d”.

As a reminder, the Kd is the free concentration of one partner at which half of the binding sites on the other are occupied at equilibrium, for simple one-to-one binding. Low values mean a tighter complex, high ones a looser complex.

The chains are these.
B1: target 1 insC 3' of 16,insA 3' of 3 (mixed)
RNA 1: CACCCGUGCAAAAAUGCAGGGGUCUAAAACUGAGCGGAUAACCUCUCUAUGG
RNA 2: GGGAAUGGAUCCACAUCUACGAAUUCGUACCAUAGACGAGGUUAUCCGCUACACCGAGAUCGGAAGAGCACACGU
B2: target 1 del14,del20 (mixed)
RNA 1: CACCCGUGCAAAAAUGCAGGGGUCUAAAACUGAGCGGAUAACCUCUCUAUGG
RNA 2: GGGAAUGGAUCCACAUCUACGAAUUCGUACCUAGAGGGUUAUCCGCUCACCGAGAUCGGAAGAGCACACGU
B3: target 1 insA 3' of 13,insA 3' of 2 (mixed)
RNA 1: CACCCGUGCAAAAAUGCAGGGGUCUAAAACUGAGCGGAUAACCUCUCUAUGG
RNA 2: GGGAAUGGAUCCACAUCUACGAAUUCGUACCAUAGAGAGAGUUAUCCGCUCAACCGAGAUCGGAAGAGCACACGU
B4: target 1 A16G,G17C (mixed)
RNA 1: CACCCGUGCAAAAAUGCAGGGGUCUAAAACUGAGCGGAUAACCUCUCUAUGG
RNA 2: GGGAAUGGAUCCACAUCUACGAAUUCGUACCAUACGGAGGUUAUCCGCUCACCGAGAUCGGAAGAGCACACGU
B5: target 1 A1U,U8G (mixed)
RNA 1: CACCCGUGCAAAAAUGCAGGGGUCUAAAACUGAGCGGAUAACCUCUCUAUGG
RNA 2: GGGAAUGGAUCCACAUCUACGAAUUCGUACCAUAGAGAGGUUAGCCGCUCUCCGAGAUCGGAAGAGCACACGU
B6: target 1 G17U,C22U (mixed)
RNA 1: CACCCGUGCAAAAAUGCAGGGGUCUAAAACUGAGCGGAUAACCUCUCUAUGG
RNA 2: GGGAAUGGAUCCACAUCUACGAAUUCGUAUCAUAUAGAGGUUAUCCGCUCACCGAGAUCGGAAGAGCACACGU
B7: target 1 U19A,C22A (mixed)
RNA 1: CACCCGUGCAAAAAUGCAGGGGUCUAAAACUGAGCGGAUAACCUCUCUAUGG
RNA 2: GGGAAUGGAUCCACAUCUACGAAUUCGUAACAAAGAGAGGUUAUCCGCUCACCGAGAUCGGAAGAGCACACGU
B8: target 1 G12U,G17A (mixed)
RNA 1: CACCCGUGCAAAAAUGCAGGGGUCUAAAACUGAGCGGAUAACCUCUCUAUGG
RNA 2: GGGAAUGGAUCCACAUCUACGAAUUCGUACCAUAAAGAGUUUAUCCGCUCACCGAGAUCGGAAGAGCACACGU
B9: target 1 insA 3' of 19,insG 3' of 2 (mixed)
RNA 1: CACCCGUGCAAAAAUGCAGGGGUCUAAAACUGAGCGGAUAACCUCUCUAUGG
RNA 2: GGGAAUGGAUCCACAUCUACGAAUUCGUACCAUAAGAGAGGUUAUCCGCUCGACCGAGAUCGGAAGAGCACACGU
B10: target 1 U10A,U11C (mixed)
RNA 1: CACCCGUGCAAAAAUGCAGGGGUCUAAAACUGAGCGGAUAACCUCUCUAUGG
RNA 2: GGGAAUGGAUCCACAUCUACGAAUUCGUACCAUAGAGAGGCAAUCCGCUCACCGAGAUCGGAAGAGCACACGU
B11: target 1 insU 3' of 22,insA 3' of 3 (mixed)
RNA 1: CACCCGUGCAAAAAUGCAGGGGUCUAAAACUGAGCGGAUAACCUCUCUAUGG
RNA 2: GGGAAUGGAUCCACAUCUACGAAUUCGUACUCAUAGAGAGGUUAUCCGCUACACCGAGAUCGGAAGAGCACACGU
B12: target 1 insU 3' of 13,insA 3' of 12 (mixed)
RNA 1: CACCCGUGCAAAAAUGCAGGGGUCUAAAACUGAGCGGAUAACCUCUCUAUGG
RNA 2: GGGAAUGGAUCCACAUCUACGAAUUCGUACCAUAGAGAGUGAUUAUCCGCUCACCGAGAUCGGAAGAGCACACGU
B13: target 1 del2,del15 (mixed)
RNA 1: CACCCGUGCAAAAAUGCAGGGGUCUAAAACUGAGCGGAUAACCUCUCUAUGG
RNA 2: GGGAAUGGAUCCACAUCUACGAAUUCGUACCAUAGAAGGUUAUCCGCUACCGAGAUCGGAAGAGCACACGU
B14: target 1 insC 3' of 19,insA 3' of 10 (mixed)
RNA 1: CACCCGUGCAAAAAUGCAGGGGUCUAAAACUGAGCGGAUAACCUCUCUAUGG
RNA 2: GGGAAUGGAUCCACAUCUACGAAUUCGUACCAUCAGAGAGGUUAAUCCGCUCACCGAGAUCGGAAGAGCACACGU
B15: target 1 insU 3' of 22,insU 3' of 22 (mixed)
RNA 1: CACCCGUGCAAAAAUGCAGGGGUCUAAAACUGAGCGGAUAACCUCUCUAUGG
RNA 2: GGGAAUGGAUCCACAUCUACGAAUUCGUACUUCAUAGAGAGGUUAUCCGCUCACCGAGAUCGGAAGAGCACACGU
B16: target 1 insC 3' of 10,insG 3' of 3 (mixed)
RNA 1: CACCCGUGCAAAAAUGCAGGGGUCUAAAACUGAGCGGAUAACCUCUCUAUGG
RNA 2: GGGAAUGGAUCCACAUCUACGAAUUCGUACCAUAGAGAGGUUCAUCCGCUGCACCGAGAUCGGAAGAGCACACGU
B17: target 1 A9U,C22A (mixed)
RNA 1: CACCCGUGCAAAAAUGCAGGGGUCUAAAACUGAGCGGAUAACCUCUCUAUGG
RNA 2: GGGAAUGGAUCCACAUCUACGAAUUCGUAACAUAGAGAGGUUUUCCGCUCACCGAGAUCGGAAGAGCACACGU
B18: target 1 insG 3' of 9,insA 3' of 2 (mixed)
RNA 1: CACCCGUGCAAAAAUGCAGGGGUCUAAAACUGAGCGGAUAACCUCUCUAUGG
RNA 2: GGGAAUGGAUCCACAUCUACGAAUUCGUACCAUAGAGAGGUUAGUCCGCUCAACCGAGAUCGGAAGAGCACACGU
B19: target 1 insC 3' of 13,insA 3' of 8 (mixed)
RNA 1: CACCCGUGCAAAAAUGCAGGGGUCUAAAACUGAGCGGAUAACCUCUCUAUGG
RNA 2: GGGAAUGGAUCCACAUCUACGAAUUCGUACCAUAGAGAGCGUUAUACCGCUCACCGAGAUCGGAAGAGCACACGU
B20: target 1 U3C,U10A (mixed)
RNA 1: CACCCGUGCAAAAAUGCAGGGGUCUAAAACUGAGCGGAUAACCUCUCUAUGG
RNA 2: GGGAAUGGAUCCACAUCUACGAAUUCGUACCAUAGAGAGGUAAUCCGCCCACCGAGAUCGGAAGAGCACACGU
B21: target 1 G15A,A16U (mixed)
RNA 1: CACCCGUGCAAAAAUGCAGGGGUCUAAAACUGAGCGGAUAACCUCUCUAUGG
RNA 2: GGGAAUGGAUCCACAUCUACGAAUUCGUACCAUAGUAAGGUUAUCCGCUCACCGAGAUCGGAAGAGCACACGU
B22: target 1 insC 3' of 11,insU 3' of 4 (mixed)
RNA 1: CACCCGUGCAAAAAUGCAGGGGUCUAAAACUGAGCGGAUAACCUCUCUAUGG
RNA 2: GGGAAUGGAUCCACAUCUACGAAUUCGUACCAUAGAGAGGUCUAUCCGCUUCACCGAGAUCGGAAGAGCACACGU
B23: target 1 U3A,A14G (mixed)
RNA 1: CACCCGUGCAAAAAUGCAGGGGUCUAAAACUGAGCGGAUAACCUCUCUAUGG
RNA 2: GGGAAUGGAUCCACAUCUACGAAUUCGUACCAUAGAGGGGUUAUCCGCACACCGAGAUCGGAAGAGCACACGU
B24: target 1 C2U,G5C (mixed)
RNA 1: CACCCGUGCAAAAAUGCAGGGGUCUAAAACUGAGCGGAUAACCUCUCUAUGG
RNA 2: GGGAAUGGAUCCACAUCUACGAAUUCGUACCAUAGAGAGGUUAUCCCCUUACCGAGAUCGGAAGAGCACACGU
B25: target 1 U8G (mixed)
RNA 1: CACCCGUGCAAAAAUGCAGGGGUCUAAAACUGAGCGGAUAACCUCUCUAUGG
RNA 2: GGGAAUGGAUCCACAUCUACGAAUUCGUACCAUAGAGAGGUUAGCCGCUCACCGAGAUCGGAAGAGCACACGU
B26: target 1 insC 3' of 15,insU 3' of 5 (mixed)
RNA 1: CACCCGUGCAAAAAUGCAGGGGUCUAAAACUGAGCGGAUAACCUCUCUAUGG
RNA 2: GGGAAUGGAUCCACAUCUACGAAUUCGUACCAUAGAGCAGGUUAUCCGUCUCACCGAGAUCGGAAGAGCACACGU
B27: target 1 U10C,G13A (mixed)
RNA 1: CACCCGUGCAAAAAUGCAGGGGUCUAAAACUGAGCGGAUAACCUCUCUAUGG
RNA 2: GGGAAUGGAUCCACAUCUACGAAUUCGUACCAUAGAGAAGUCAUCCGCUCACCGAGAUCGGAAGAGCACACGU

This data set concerns the target T1, EsCas13d, nuclease-dead (Eubacterium siraeum, UniProt B0MS50, R295A;H300A;R849A;H854A).
T1 sequence: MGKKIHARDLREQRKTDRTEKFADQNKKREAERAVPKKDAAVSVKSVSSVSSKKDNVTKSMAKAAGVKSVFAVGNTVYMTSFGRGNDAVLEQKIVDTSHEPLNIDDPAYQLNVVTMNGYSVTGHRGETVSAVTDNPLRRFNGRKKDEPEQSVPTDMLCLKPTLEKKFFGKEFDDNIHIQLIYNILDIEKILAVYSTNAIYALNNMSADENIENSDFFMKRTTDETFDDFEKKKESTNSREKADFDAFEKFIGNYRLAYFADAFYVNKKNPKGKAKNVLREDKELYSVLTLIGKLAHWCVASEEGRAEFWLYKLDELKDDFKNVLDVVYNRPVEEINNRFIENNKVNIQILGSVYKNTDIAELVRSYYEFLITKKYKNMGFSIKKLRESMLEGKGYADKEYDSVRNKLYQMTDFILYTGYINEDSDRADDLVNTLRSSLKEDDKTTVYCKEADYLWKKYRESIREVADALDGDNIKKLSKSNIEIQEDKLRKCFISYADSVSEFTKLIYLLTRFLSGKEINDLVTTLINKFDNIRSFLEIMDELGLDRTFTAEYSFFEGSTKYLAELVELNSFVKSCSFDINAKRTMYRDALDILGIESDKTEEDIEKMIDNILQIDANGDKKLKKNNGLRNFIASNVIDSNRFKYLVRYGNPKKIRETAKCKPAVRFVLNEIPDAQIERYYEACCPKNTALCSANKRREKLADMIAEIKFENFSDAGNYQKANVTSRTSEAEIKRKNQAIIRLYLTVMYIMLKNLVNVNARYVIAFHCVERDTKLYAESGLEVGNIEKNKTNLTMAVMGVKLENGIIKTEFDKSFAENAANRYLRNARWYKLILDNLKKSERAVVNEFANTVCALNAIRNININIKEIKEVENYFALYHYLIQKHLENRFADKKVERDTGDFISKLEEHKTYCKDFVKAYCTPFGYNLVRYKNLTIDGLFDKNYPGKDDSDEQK
Kind of data set: crRNA (strand 1, pre-loaded); Mg2+; 40 mM Tris-HCl pH 7.5, 150 mM NaCl, 6 mM MgCl2, 1 mM DTT, 0.1% Tween-20, 0.2 mg/ml BSA; 25 C; 10 min per concentration, then washed. The settings on record: tags: His6-TwinStrep-SUMO cleaved; N-terminal SNAP kept (SNAP-Surface 488); label: 3' end held by stalled T7 RNA polymerase.
B1 had a Kd of 0.062 ± 0.01 µM. On to B2, for which the Kd is 0.072 ± 0.025 µM. The value for B3 was 0.0031 ± 0.00028 µM; that for B4 was 0.076 ± 0.01 µM; that for B5 was 0.0246 ± 0.001 µM. As for B6, the affinity, expressed as Kd, was 0.0324 ± 0.0028 µM. The molecule B7 showed a Kd of 0.056 ± 0.007 µM. Take B8: the Kd amounted to 0.059 ± 0.008 µM. The value for B9 was 0.0195 ± 0.0013 µM; that for B10 was 0.00996 ± 0.00033 µM; that for B11 was 0.0315 ± 0.0028 µM. B12: the Kd is 0.0101 ± 0.0007 µM. The molecule B13 had a Kd of 0.042 ± 0.007 µM. Under B14 stands 0.057 ± 0.005 µM; under B15, 0.031 ± 0.008 µM. Take B16: binding was characterised by a dissociation constant (Kd) of 0.0095 ± 0.0005 µM. The molecule B17 gave a Kd of 0.0169 ± 0.0009 µM. B18 yielded a Kd of 0.0212 ± 0.0025 µM.

B19 registered an equilibrium dissociation constant (Kd) of 0.0166 ± 0.0006 µM. In the case of B20, the Kd was determined as 0.09 ± 0.04 µM. In turn, B21 had a Kd of 0.0243 ± 0.0023 µM. This Kd is about 3.7-fold lower than that of the molecule before. The value for B22 was 0.0232 ± 0.0018 µM.

With B23, the Kd turned out to be 0.0143 ± 0.0012 µM. The value for B24 was 0.0124 ± 0.0008 µM; that for B25 was 0.0192 ± 0.0009 µM.

The molecule B26 gave a Kd of 0.0166 ± 0.0018 µM. As to B27, the affinity, expressed as Kd, was 0.0136 ± 0.001 µM.
